Test results as given in the DeepSol protein solubility set.

Assay: soluble on expression in E. coli; label from the status in PepcDB or PDB records

Question: For “LFGVTSELSKDGRERIYRVEGQLFYASVEDFMAAFDFREALDRVVIDVSRAHIWDISSVQALDMAVLKFRREGAEVRIVGMNEASETMVDRLAIHDKPGAMDRLVAH”, which “soluble on expression in E. coli” value is on record?
Answer: not soluble

Question: Which “soluble on expression in E. coli” value does the source give for “LHIDTEWRSDFKWDRLAEHISDLSGKYVLDIGCGSGYHLWRMRGAGAKFVVGIDPTQLFLMQFNAIKHFIDDSPVHLLPLGVEQLPELKAFDTVFAMGVLYHRRSPIDFLYQLKAQLVKGGELVLETLIVDG” here?
Answer: not soluble

Question: For “LIELIQYTPTTDTVRPEPILIVPAWIMKYYILDLSPENSMVKFLVDQGYTVFMISWRNPSAEDRDLGLDDYRKMGVVDAIGAVQGIVPDQKIHGVGYCLGGTLLSISAATMGRDGGDPFASLSYLASQIDFTEPGELQLFINESQLTFLEDMMWDHGYLDTTQMSGAFQMIGSADLVWSRSLHSYLMGDEPAMFDLLAWNADGTRMPYRMHSEYLRSLYLNNELTEGAFVVEGRPISVTDIRVPVFSVGTVKDHVAPWPSVYKMHLYLDTDLTFVLTSGGHN”, which “soluble on expression in E. coli” value is on record?
Answer: not soluble

Question: With “LINQAEVDIYDIPVALITEQYMAYIHTMQELQLDVASEYLVMAATLLQIKSKMLLPKQEEIFDETFEYEEEDPREELMFRLIEYRRYKEAAQELKEKEGERSQVHTRLPDNLDDYLTEEERQRQSIQGVTLFDMLAAYQKLLKRRAYSRPRTSTVKVEEYSIDERMTDILMDLEKCNGKCRFQDLFV” as the sequence, how does the “soluble on expression in E. coli” value read?
Answer: not soluble

Question: For “LKDVLNILLMDEISKLKDFLSNLDYIKPKVNIEEEIIEIRKEDIINALKLFKGKYEIEVDKIPKAVYVYLVKKNILFLYPQRGTLKPQSFLVWNAIKRVL”, which “soluble on expression in E. coli” value is on record?
Answer: soluble

Question: Which “soluble on expression in E. coli” value does the source give for “LKLPDMRDVVGQPEARFAAEVAAAGGHHMLMIGPPGSGKSMIAERIPSLLPELSPQQMIEATAVHSVVGRTFSGPVSRAPFISPHHNVSKAALLGGGSGSPLPGAISLAHHGVLFLDEVSEIPASILDSLRTPLEYGSIRIIRSRHDVTFPAQFQLILAANPCRCG” here?
Answer: not soluble

Question: With “LKRDFIILGNGPRLQNSTYQCKHCDSKLQSTAELTSHLNIHNEEFQKRAKRQERRKQLLSKQKYADGAFADFKQE” as the sequence, how does the “soluble on expression in E. coli” value read?
Answer: soluble

Question: Which “soluble on expression in E. coli” value does the source give for “LNHIYNVAFWAEEIGKIVGLDEKRLAKLYLAGLLHDIGKVYIDERILNKEGRLTLQEYQEMKKHVDYSYNMVKDLMIWDIEDDVALWVVQHHEKFDGSGYPFGLKEEEITPEGRILKIADTLDA” here?
Answer: soluble

Question: With “LNKTLFLGYAFLLTMATTSDKLASRSKLPDGPTGSSEEEEEFLEIPPFNKQYTESQLRAGAGYILEDFNEAQCNTAYQCLLIADQHCRTRKYFLCLASGIPCVSHVWVHDSCHANQLQNYRNYLLPAGYSLEEQRILDWQPRENPFQNLKVLLVSDQQQNFLELWSEILMTGGAASVKQHHSSAHNKDIALGVFDVVVTDPSCPASVLKCAEALQLPVVSQEWVIQCLIVGERIGFKQHPKYKHDYVSH” as the sequence, how does the “soluble on expression in E. coli” value read?
Answer: soluble

Question: Which “soluble on expression in E. coli” value does the source give for “LNNLEELKRDIIEQFKEKNALDEGIVVMASGGKDSSTAIALAKDLGLNIEYLIHFYHRWSWDVSKKMVEKLSKKFDIPVIFYNITDELLKRTKGAKGSSICRICKNIMKDKAVDISKEKGIRIIMTGDSALEKVSGAVMNYLRDVYGEVVYNKMELTPVPQKYSKGKDKEVLFFRPLIRLACEDVLKLMDYYNIEIERAHE” here?
Answer: not soluble

Question: For “LRSNIDLFYTPGEILYGKRETQQMPEVGQRLRVGGMVMPGSVQRDPNSLKVTFTIYDAEGSVDVSYEGILPDLFREGQGVVVQGELEKGNHILAKEVLAKHDENYTPPEVEKAMEANHRRPASVYKDPASHHHHHH”, which “soluble on expression in E. coli” value is on record?
Answer: soluble

Question: With “LSIPEDYQARLQPNRVEGSYPLVRMEFTGATVDAPLMSQISRKYNIDVSILSSDLDYAGGVKFGMMVAELFGNEQDDSAAIEYLREHNVKVEVLGYVL” as the sequence, how does the “soluble on expression in E. coli” value read?
Answer: soluble

Question: For “LSLQSEIDSLCAVSHELLHLGLDGEPIYSDRFRQLNTDVYHRCEHLFGSHGRTLEEEASLCIALLTGYNATIYNHGDKEDKIQSVLNRSWDLLDTLPVSLLKCRLLVACYAEVFD”, which “soluble on expression in E. coli” value is on record?
Answer: not soluble

Question: Which “soluble on expression in E. coli” value does the source give for “LTKRVQEAQAMTEGERRKLSSVLAYMTDGVIATDRRGKVILINTPAEKMLRVKHESANGRSIIDVLDIGDTYQFEDLMEVDGSLTMDRSTLDKPYVLRANFSVIQRETGFNNGVIAVLHDIT” here?
Answer: not soluble

Question: Which “soluble on expression in E. coli” value does the source give for “LTLGNTTSSVILTNYMDTQYYGEIGIGTPPQTFKVVFDTGSSNVWVPSSKCSRLYTACVYHKLFDASDSSSYKHNGTELTLRYSTGTVSGFLSQDIITVGGITVTQMFGEVTEMPALPFMLAEFDGVVGMGFIEQAIGRVTPIFDNIISQGVLKEDVFSFYYNRDSENSQSLGGQIVLGGSDPQHYEGNFHYINLIKTGVWQIQMKGVSVGSSTLLCEDGCLALVDTGASYISGSTSSIEKLMEALGAKKRLFDYVVKCNEGPTLPDISFHLGGKEYTLTSADYVFQESYSSKKLCTLAIHAMDIPPPTGPTWALGATFIRKFYTEFDRRNNRIGFALAR” here?
Answer: soluble

Question: Which “soluble on expression in E. coli” value does the source give for “LTVLELESQIDVLSRIQFVSRFGSNLVHIEGVKGSGKSWLAQRYLEKWCDDADQVLLMCHPNQSIQQQRGIILKQVVRDPLFNESDSVVDSVGRMLAGEKCNLVLAIDDAHLLSSELLSELWLLVQKAQSAPNWQINILLFAEKGKLTQTLSQMSYGQDNKPVDIDINP” here?
Answer: soluble

Question: Which “soluble on expression in E. coli” value does the source give for “LWALGNDSVTAKSLTISNFTLTERKTRYELCFLLDAKNSNTVNEPLSELKNCYGKDVSNVFRTITADNGSEFSRLSEMLQGLGIEAYFTHPYSSWERGTNERHNGLIRRFIPKGKAIKDFSEETIKRIQQWLNSLPRRILGYKTPEECFNEEIHNLVNKNISAIA” here?
Answer: not soluble

Question: For “LYAHAVESLRHEITAVLLIAKPEDEVLLRLESPGGVVHGYGLAASQLRRLRERNIPLTVAVDKVAASGGYMMACVADKIVSAPFAVIGSVGVVAEVPNIHRLLKKHDIDVDVMTAGEFKRTVTFMGENTEKGKQKFRQELEETHQLFKQFVSENRPGLDIEKIATGEHWFGRQALALNLIDEISTSDD”, which “soluble on expression in E. coli” value is on record?
Answer: not soluble

Question: Which “soluble on expression in E. coli” value does the source give for “MAAAPPSADPLDKALIVDVDQWIEQLYECKPLSENQVKTLCEKAKEILEKEPNVQEVRCPVTVCGDVHGQFHDLMELFKMGGKSPDTNYLFMGDYVDRGYYSVETVSLLVCLKIRYKDRVTLLRGNHESRQITQVYGFYDECLRKYGNSNVWKYFTDLFDCFPLTALVDGQIFCLHGGLSPSIDTLDHIRALDRIQEVPHEGPMCDLLWSDPDDRGGWGISPRGAGYTFGQDISETFNHSNGLTLISRAHQLVMEGYNWSHDRNVVTVFSAPNYCYRCGNQAAMVELDDDLKYSFLQFDPAPRRGEPHVTRRTPDYFL” here?
Answer: not soluble

Question: With “MAAAVRSVKGLVAVITGGASGLGLSTAKRLVGQGATAVLLDVPNSEGETEAKKLGGNCIFAPANVTSEKEVQAALTLAKEKFGRIDVAVNCAGIAVAIKTYHEKKNQVHTLEDFQRVINVNLIGTFNVIRLVAGVMGQNEPDQGGQRGVIINTASVAAFEGQVGQAAYSASKGGIVGMTLPIARDLAPIGIRVVTIAPGLFATPLLTTLPDTVRNFLASQVPFPSRLGDPAEYAHLVQMVIENPFLNGEVIRLDGAIRMQP” as the sequence, how does the “soluble on expression in E. coli” value read?
Answer: soluble

Question: For “MAAGKRDYYEVLGVSRSATAQDIKRAFRKLAMQYHPDRHKGEGETVQKQNEEKFKEVNEAYEVLSDTEKRGMYDRFGHEGLNASGFHETGFNPFDIFNSVFGEGFSFDMDGGSPFDFIFSRGKKSRQNRVVLPYDLEIAVGVDISFFEMTNGCTRTIEYTKRVTCSACDGFGAEGGETGMVSCNSCEGNGFILKNQRSIFGTVQSQMLCQSCGGQGKQAKHKCKTCKGSKYKKVPTTKEIQIPAGIYHGDALVDDHGGNEFGGHVGKLVVHVGVLPSKIFKRVDHNVVANVLVDPMIAITGGKIELPTLEGIKEFNLRAGTKSGEQIVIPGGGIKFTKNFRKKAGDLIIIISYARPSEYSAPELRKLKEFIKPNQEVKQYLEHHHHHH”, which “soluble on expression in E. coli” value is on record?
Answer: soluble

Question: Which “soluble on expression in E. coli” value does the source give for “MAAHFDLTDLQLLVHIGDWHSLTRGAEKSHLSLPAASTRVKNLEEHFGTQLLYRTSQGVTLTPSGEAMLRHARTVMQQVEQMRGDMQEFARGVKGHVRVLANTTAMTEFMPAVLARYLAAHPDVNVELRERLSYLVVRAVADGSADIGVVAGCAPDQKLQFIPYRKDRLVVVTPAGHRLAAEESVAFADTLADDYVGLSEWSAIHPFLVQAAASLGRTFKFRVEVGNFEAVCRMIESGVGIGVIPESAALRYARNLDIALVGLTDEWAVRELQICVKNLDSLPVFARELVETLVADGDAAG” here?
Answer: soluble

Question: For “MAAIIRTLFKSKKSKKGDEENNEDLAREVSNRRSFRAPSTSSSKSQRRAVARFADDGALPATAAYHTTSAPKLRKGPQSCPGGYRDESDVSYESDKYSQKSNSHRRRDVLHQSMRQNYTIDEGRKPSSRRHHSSKSDFRRRGESSEYGSGDPSPVGQYSSRHSHYEDRIEESENDDFSEKAQFAVIERAQQHYMQKYKESEQKRREEKRKLKDMEKECNDAKNAMFHYMNQLDKVKKERDCYRKELSRCKKQLEAFQNSGYDAFHHLRQPQISNPQQYPPPLSMGSYPYMSQSMNASHHMSSNFMNSAPPSSNTPMTMTSGAGESLINPSDVSFLQNSFLQPTSQGLTGMTPPPGGFKVPTNYGDDDRDEVKDYRSELLIETSRSTKEVDSISPSSSADSQVTLLDHSTIDKENRKPPSRPFSMMSI”, which “soluble on expression in E. coli” value is on record?
Answer: not soluble

Question: For “MAAKFHLKKAKDGQFHFNLHAANGEIILTSELYKAKDSALGGIESVRKNSQRDGAFEVKPANNGKFHFVLKATNGQVVGQSQLYASQANAEAGVQSVKRATPEAGLSDES”, which “soluble on expression in E. coli” value is on record?
Answer: not soluble

Question: Which “soluble on expression in E. coli” value does the source give for “MAAKIPGVIALFDVDGTLTAPRKEATPELLDFIRELRKVVTIGVVGGSDLSKISEQLGKTVTNDYDYCFSENGLVAHKDGKSIGIQSLKLHLGDDKLKELINFTLHYIADLDIPIKRGTFIEFRNGMLNVSPIGRNCSQEERDEFERYDKVQNIRPKMVAELRERFAHLNLTFSIGGQISFDVFPKGWDKTYCLQYLEDFSEIHFFGDKTYEGGNDYEIYESPKTIGHSVTSPDDTVAKCKALFMS” here?
Answer: soluble

Question: For “MAALTASCIDLNIQGNGAYSVLKQLATIALQNGFITDSHQFLQTLLLREKMHSTGFGSGVAVPHGKSACVKQPFVLFARKAQAIDWKASDGEDVNCWICLGVPQSGEEDQVKIIGTLCRKIIHQEFIHQLQQGDTDQVLALLNQTLSS”, which “soluble on expression in E. coli” value is on record?
Answer: not soluble

Question: With “MAASIELFEQNGFSETSIQDIVDALGVTKGTFYYYFTSKEELLMDIHLRYIERLLDEEERIISDKRRSVQEKLYDIIFMLIHNVERQGREARIFFREMKHLNEEHLQKVKEKRDLFRYRLQSLIEEGMKSGELRCDLSPSIATLTVLGAANWSYQWFRPDGELTDAEVAKQMVEILLDGMSAPSVSKAE” as the sequence, how does the “soluble on expression in E. coli” value read?
Answer: not soluble

Question: Which “soluble on expression in E. coli” value does the source give for “MAAYKLVLIRHGESAWNLENRFSGWYDADLSPAGHEEAKRGGQALRDAGYEFDICFTSVQKRAIRTLWTVLDAIDQMWLPVVRTWRLNERHYGGLTGLNKAETAAKHGEAQVKIWRRSYDVPPPPMEPDHPFYSNISKDRRYADLTEDQLPSCESLKDTIARALPFWNEEIVPQIKEGKRVLIAAHGNSLRGIVKHLEGLSEEAIMELNLPTGIPIVYELDKNLKPIKPMQFLGDEETVRKAMEAVAAQGKAKK” here?
Answer: soluble

Question: Which “soluble on expression in E. coli” value does the source give for “MAAYYRWKSFEENEDRPEKPRRYGVTEMRGPHYSVLSQNLLQEIFESMGQFVDGLKFSGGSNSLIPKSFIKQAIEMAHEHGVYVSTGDWAEHMLRSGPSAFKDYVEECKQLGFDTIELNANLLEVPEETLLRYVRLIKNGGLRAKPMFAVKFNKSDIPGRNRAFGSYVVPEPRSSEFVEDIDLLIRKAERCLEAGADTIMIDADDVCKYADSLRADIIAKVIGRLGIEKTMFEASDAKLVEWFIKRYGPNVNLYVDHSQIMDLECLRGRHLGKDHQSVLSSSYFLF” here?
Answer: soluble
